Laboratory results published in US20140072581A1 (Zymeworks, published 2014).

T1: CD19 on RAJI (CD19+) cells (UniProt P15391 20-556, limits assumed)
T1 construct: whole, on cells
T1 sequence (looked up): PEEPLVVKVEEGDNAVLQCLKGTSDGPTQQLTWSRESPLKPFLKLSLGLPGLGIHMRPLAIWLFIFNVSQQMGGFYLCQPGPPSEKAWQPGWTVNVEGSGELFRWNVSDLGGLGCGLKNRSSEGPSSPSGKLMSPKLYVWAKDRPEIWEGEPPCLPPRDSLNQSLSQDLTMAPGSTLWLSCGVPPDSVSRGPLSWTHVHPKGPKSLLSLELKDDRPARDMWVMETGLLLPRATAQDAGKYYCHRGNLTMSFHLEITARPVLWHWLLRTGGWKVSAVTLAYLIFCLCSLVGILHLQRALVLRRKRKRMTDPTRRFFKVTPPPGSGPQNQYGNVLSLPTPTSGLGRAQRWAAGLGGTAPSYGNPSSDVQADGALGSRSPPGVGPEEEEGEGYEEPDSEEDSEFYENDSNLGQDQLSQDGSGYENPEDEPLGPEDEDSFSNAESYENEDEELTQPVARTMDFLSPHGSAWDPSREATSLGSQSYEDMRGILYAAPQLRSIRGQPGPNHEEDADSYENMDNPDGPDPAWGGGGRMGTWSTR


Tests used:
[1] = target: T1, CD19 on RAJI (CD19+) cells; assay: live cell ELISA on RAJI (CD19+) cells; OD450 grade at 1/60 dilution
Procedure: (§1) These variants were tested for their ability to bind to cells expressing the target antigen using a live cell ELISA binding assay using filter plates and wash steps carried out using a vacuum manifold (method developed by Anne Marcil at the National Research Council, Montreal, Canada). The method was carried out as follows. Cells were maintained in exponential growth phase and then washed, counted and distributed at 10E5 cells per well in 50% medium, 50% blocking buffer. Dilutions of variants in blocking buffer were added to the cells and incubated for 1 hour at 4° C. After collection and four washes in medium, an HRP-conjugated goat anti-human IgG was added to cells which were incubated for 1 hour at 4° C. After collection and four washes in medium and 3 washes in PBS, TMB substrate was added to cells which were incubated for 25 minutes at room temperature. The reaction was stopped by addition of H₂SO4 and OD read at 450 nm. The ELISA results are depicted in Tables 17 and 18. A, B, and C refer to the ratio of Chain A to Chain B used in expression of the variant: Ratio A=Chain A/Chain B=1:1 A/B=50%/50%; Ratio B=Chain A/Chain B=2:1 A/B=66%/34%; Ratio C=Chain A/Chain B=1:2 A/B=34%/66%.

[2] = target: T2, CD3 on HBP-ALL (CD3+) cells (UniProt P07766 23-207); assay: live cell ELISA on HBP-ALL (CD3+) cells; OD450 grade at 1/60 dilution
T2 construct: whole, on cells; CD3 is a multi-chain complex
Procedure: as §1

Binder	OD450 [1] [od]	OD450 [2] [od]
scMAB_LCI_CD3xCD19_GS15-GS24_GS15-GS24, variant 1841 (bispecific antibody, human IgG1, kappa, Heterodimeric IgG1 Fc; the CH3 mutations are already in the entries; also called 1841 B) chain 1: QVQLVQSGGGVVQPGRSLRLSCKASGYTFTRYTMHWVRQAPGKGLEWIGYINPSRGYTNYNQKVKDRFTISRDNSKNTAFLQMDSLRPEDTGVYFCARYYDDHYCLDYWGQGTPVTVSSGGGGSGGGGSGGGGSDIQMTQSPSSLSASVGDRVTITCSASSSVSYMNWYQQTPGKAPKRWIYDTSKLASGVPSRFSGSGSGTDYTFTISSLQPEDIATYYCQQWSSNPFTFGQGTKLQITRTVAAPSVFIFPPSDEQLKSGTASVVCLLNNFYPREAKVQWKVDNALQSGNSQESVTEQDSKDSTYSLSSTLTLSKADYEKHKVYACEVTHQGLSSPVTKSFNRGECGGGGSGGGGSGGGGSGGGGSGGGGSTKGPSVFPLAPSSKSTSGGTAALGCLVKDYFPEPVTVSWNSGALTSGVHTFPAVLQSSGLYSLSSVVTVPSSSLGTQTYICNVNHKPSNTKVDKKVEPKSCDKTHTCPPCPAPELLGGPSVFLFPPKPKDTLMISRTPEVTCVVVDVSHEDPEVKFNWYVDGVEVHNAKTKPREEQYNSTYRVVSVLTVLHQDWLNGKEYKCKVSNKALPAPIEKTISKAKGQPREPQVYVYPPSRDELTKNQVSLTCLVKGFYPSDIAVEWESNGQPENNYKTTPPVLDSDGSFALVSKLTVDKSRWQQGNVFSCSVMHEALHNHYTQKSLSLSPGK chain 2: not shown	> 2	1 to 2
scMAB_LCI_CD3xCD19_GS15-GS24_GS15-GS24_SS, variant 1843 (bispecific antibody, human IgG1, kappa, Heterodimeric IgG1 Fc; the CH3 mutations are already in the entries; also called 1843 B) chain 1: QVQLVQSGGGVVQPGRSLRLSCKASGYTFTRYTMHWVRQAPGKCLEWIGYINPSRGYTNYNQKVKDRFTISRDNSKNTAFLQMDSLRPEDTGVYFCARYYDDHYCLDYWGQGTPVTVSSGGGGSGGGGSGGGGSDIQMTQSPSSLSASVGDRVTITCSASSSVSYMNWYQQTPGKAPKRWIYDTSKLASGVPSRFSGSGSGTDYTFTISSLQPEDIATYYCQQWSSNPFTFGCGTKLQITRTVAAPSVFIFPPSDEQLKSGTASVVCLLNNFYPREAKVQWKVDNALQSGNSQESVTEQDSKDSTYSLSSTLTLSKADYEKHKVYACEVTHQGLSSPVTKSFNRGECGGGGSGGGGSGGGGSGGGGSGGGGSTKGPSVFPLAPSSKSTSGGTAALGCLVKDYFPEPVTVSWNSGALTSGVHTFPAVLQSSGLYSLSSVVTVPSSSLGTQTYICNVNHKPSNTKVDKKVEPKSCDKTHTCPPCPAPELLGGPSVFLFPPKPKDTLMISRTPEVTCVVVDVSHEDPEVKFNWYVDGVEVHNAKTKPREEQYNSTYRVVSVLTVLHQDWLNGKEYKCKVSNKALPAPIEKTISKAKGQPREPQVYVYPPSRDELTKNQVSLTCLVKGFYPSDIAVEWESNGQPENNYKTTPPVLDSDGSFALVSKLTVDKSRWQQGNVFSCSVMHEALHNHYTQKSLSLSPGK chain 2: not shown	> 2	1 to 2
scMAB_LCI_CD3xCD19_GS20-GS24_GS20-GS24, variant 1840 (bispecific antibody, also called 1840 A) chain 1: QVQLVQSGGGVVQPGRSLRLSCKASGYTFTRYTMHWVRQAPGKGLEWIGYINPSRGYTNYNQKVKDRFTISRDNSKNTAFLQMDSLRPEDTGVYFCARYYDDHYCLDYWGQGTPVTVSSGGGGSGGGGSGGGGSGGGGSDIQMTQSPSSLSASVGDRVTITCSASSSVSYMNWYQQTPGKAPKRWIYDTSKLASGVPSRFSGSGSGTDYTFTISSLQPEDIATYYCQQWSSNPFTFGQGTKLQITRTVAAPSVFIFPPSDEQLKSGTASVVCLLNNFYPREAKVQWKVDNALQSGNSQESVTEQDSKDSTYSLSSTLTLSKADYEKHKVYACEVTHQGLSSPVTKSFNRGECGGGGSGGGGSGGGGSGGGGSGGGGSTKGPSVFPLAPSSKSTSGGTAALGCLVKDYFPEPVTVSWNSGALTSGVHTFPAVLQSSGLYSLSSVVTVPSSSLGTQTYICNVNHKPSNTKVDKKVEPKSCDKTHTCPPCPAPELLGGPSVFLFPPKPKDTLMISRTPEVTCVVVDVSHEDPEVKFNWYVDGVEVHNAKTKPREEQYNSTYRVVSVLTVLHQDWLNGKEYKCKVSNKALPAPIEKTISKAKGQPREPQVYVYPPSRDELTKNQVSLTCLVKGFYPSDIAVEWESNGQPENNYKTTPPVLDSDGSFALVSKLTVDKSRWQQGNVFSCSVMHEALHNHYTQKSLSLSPGK chain 2: not shown	> 2	1 to 2
scMAB_LCI_CD3xCD19_GS20-GS24_GS20-GS24_SS, variant 1842 (bispecific antibody, human IgG1, kappa, Heterodimeric IgG1 Fc; the CH3 mutations are already in the entries; also called 1842 B) chain 1: QVQLVQSGGGVVQPGRSLRLSCKASGYTFTRYTMHWVRQAPGKCLEWIGYINPSRGYTNYNQKVKDRFTISRDNSKNTAFLQMDSLRPEDTGVYFCARYYDDHYCLDYWGQGTPVTVSSGGGGSGGGGSGGGGSGGGGSDIQMTQSPSSLSASVGDRVTITCSASSSVSYMNWYQQTPGKAPKRWIYDTSKLASGVPSRFSGSGSGTDYTFTISSLQPEDIATYYCQQWSSNPFTFGCGTKLQITRTVAAPSVFIFPPSDEQLKSGTASVVCLLNNFYPREAKVQWKVDNALQSGNSQESVTEQDSKDSTYSLSSTLTLSKADYEKHKVYACEVTHQGLSSPVTKSFNRGECGGGGSGGGGSGGGGSGGGGSGGGGSTKGPSVFPLAPSSKSTSGGTAALGCLVKDYFPEPVTVSWNSGALTSGVHTFPAVLQSSGLYSLSSVVTVPSSSLGTQTYICNVNHKPSNTKVDKKVEPKSCDKTHTCPPCPAPELLGGPSVFLFPPKPKDTLMISRTPEVTCVVVDVSHEDPEVKFNWYVDGVEVHNAKTKPREEQYNSTYRVVSVLTVLHQDWLNGKEYKCKVSNKALPAPIEKTISKAKGQPREPQVYVYPPSRDELTKNQVSLTCLVKGFYPSDIAVEWESNGQPENNYKTTPPVLDSDGSFALVSKLTVDKSRWQQGNVFSCSVMHEALHNHYTQKSLSLSPGK chain 2: not shown	> 2	1 to 2
scMAB_LL_CD3xCD19_HH41_GSE34, variant 1846 (bispecific antibody, human IgG1, kappa, A, B and C are the chain A : chain B DNA ratios used in expression (1:1, 2:1, 1:2); also called 1846 A; 1846 B) chain 1: DIQMTQSPSSLSASVGDRVTITCSASSSVSYMNWYQQTPGKAPKRWIYDTSKLASGVPSRFSGSGSGTDYTFTISSLQPEDIATYYCQQWSSNPFTFGQGTKLQITRTVAAPSVFIFPPSDEQLKSGTASVVCLLNNFYPREAKVQWKVDNALQSGNSQESVTEQDSKDSTYSLSSTLTLSKADYEKHKVYACEVTHQGLSSPVTKSFNRGECGGSGGGSGSSADDAKKDAAKKDDAKKDDAKKDGGGSGGGSGQVQLVQSGGGVVQPGRSLRLSCKASGYTFTRYTMHWVRQAPGKGLEWIGYINPSRGYTNYNQKVKDRFTISRDNSKNTAFLQMDSLRPEDTGVYFCARYYDDHYCLDYWGQGTPVTVSSASTKGPSVFPLAPSSKSTSGGTAALGCLVKDYFPEPVTVSWNSGALTSGVHTFPAVLQSSGLYSLSSVVTVPSSSLGTQTYICNVNHKPSNTKVDKKVEPKSCDKTHTCPPCPAPELLGGPSVFLFPPKPKDTLMISRTPEVTCVVVDVSHEDPEVKFNWYVDGVEVHNAKTKPREEQYNSTYRVVSVLTVLHQDWLNGKEYKCKVSNKALPAPIEKTISKAKGQPREPQVYVYPPSRDELTKNQVSLTCLVKGFYPSDIAVEWESNGQPENNYKTTPPVLDSDGSFALVSKLTVDKSRWQQGNVFSCSVMHEALHNHYTQKSLSLSPGK chain 2: not shown	> 2	1 to 2
scMAB_LL_CD3xCD19_HH41_HH41, variant 1844 (bispecific antibody, human IgG1, kappa, B and C are the chain A : chain B DNA ratios used in expression (2:1 and 1:2); also called 1844 B; 1844 C) chain 1: DIQMTQSPSSLSASVGDRVTITCSASSSVSYMNWYQQTPGKAPKRWIYDTSKLASGVPSRFSGSGSGTDYTFTISSLQPEDIATYYCQQWSSNPFTFGQGTKLQITRTVAAPSVFIFPPSDEQLKSGTASVVCLLNNFYPREAKVQWKVDNALQSGNSQESVTEQDSKDSTYSLSSTLTLSKADYEKHKVYACEVTHQGLSSPVTKSFNRGECGGSGGGSGSSADDAKKDAAKKDDAKKDDAKKDGGGSGGGSGQVQLVQSGGGVVQPGRSLRLSCKASGYTFTRYTMHWVRQAPGKGLEWIGYINPSRGYTNYNQKVKDRFTISRDNSKNTAFLQMDSLRPEDTGVYFCARYYDDHYCLDYWGQGTPVTVSSASTKGPSVFPLAPSSKSTSGGTAALGCLVKDYFPEPVTVSWNSGALTSGVHTFPAVLQSSGLYSLSSVVTVPSSSLGTQTYICNVNHKPSNTKVDKKVEPKSCDKTHTCPPCPAPELLGGPSVFLFPPKPKDTLMISRTPEVTCVVVDVSHEDPEVKFNWYVDGVEVHNAKTKPREEQYNSTYRVVSVLTVLHQDWLNGKEYKCKVSNKALPAPIEKTISKAKGQPREPQVYVYPPSRDELTKNQVSLTCLVKGFYPSDIAVEWESNGQPENNYKTTPPVLDSDGSFALVSKLTVDKSRWQQGNVFSCSVMHEALHNHYTQKSLSLSPGK chain 2: not shown	> 2	1 to 2
scMAB_LL_CD3xCD19_GSE34_GSE34, variant 1845 (bispecific antibody, A, B and C are the chain A : chain B DNA ratios used in expression (1:1, 2:1, 1:2); also called 1845 A; 1845 B) chain 1: DIQMTQSPSSLSASVGDRVTITCSASSSVSYMNWYQQTPGKAPKRWIYDTSKLASGVPSRFSGSGSGTDYTFTISSLQPEDIATYYCQQWSSNPFTFGQGTKLQITRTVAAPSVFIFPPSDEQLKSGTASVVCLLNNFYPREAKVQWKVDNALQSGNSQESVTEQDSKDSTYSLSSTLTLSKADYEKHKVYACEVTHQGLSSPVTKSFNRGECSGGGSGGGSEGGGSEGGGSEGGGSEGGGSGGGSGQVQLVQSGGGVVQPGRSLRLSCKASGYTFTRYTMHWVRQAPGKGLEWIGYINPSRGYTNYNQKVKDRFTISRDNSKNTAFLQMDSLRPEDTGVYFCARYYDDHYCLDYWGQGTPVTVSSASTKGPSVFPLAPSSKSTSGGTAALGCLVKDYFPEPVTVSWNSGALTSGVHTFPAVLQSSGLYSLSSVVTVPSSSLGTQTYICNVNHKPSNTKVDKKVEPKSCDKTHTCPPCPAPELLGGPSVFLFPPKPKDTLMISRTPEVTCVVVDVSHEDPEVKFNWYVDGVEVHNAKTKPREEQYNSTYRVVSVLTVLHQDWLNGKEYKCKVSNKALPAPIEKTISKAKGQPREPQVYVYPPSRDELTKNQVSLTCLVKGFYPSDIAVEWESNGQPENNYKTTPPVLDSDGSFALVSKLTVDKSRWQQGNVFSCSVMHEALHNHYTQKSLSLSPGK chain 2: not shown	> 2	1 to 2
